Test results as given in patent US20180037654A1 (ADURO BIOTECH HOLDINGS EUROPE B V, published 2018).

B1: hCTLA4.27H1L1 (antibody, human IgG4 S228P, kappa, V domains shown)
VH: EVQLLQSGAVLARPGTSVKISCKASGYSFTTYWMNWVKQRPGQGLEWIGMIHPSDSETSLNQAFKDKAKLTAATSASIAYLEFSSLTNEDSAVYYCARMGRRNPYYFDYWGQGTLVTVSS
VL: DIQMTQSPSSLSASVGDRVTITCRPSENLYTNLAWYQQKPGKAPKLLLYGATNLADGVPSRFSGSGSGTDYTLTISSLQPEDFATYYCQHLWGTPFTFGQGTKLEIKR
notes: Humanized, human IgG4 (S228P) kappa; H1 read as hCTLA4.27VH1, L1 as hCTLA4.27VL1
B2: hCTLA4.27H3L1 (antibody, human IgG4 S228P, kappa, V domains shown)
VH: EVQLVQSGAVVAKPGSSVKVSCKASGYSFTTYWMNWVRQAPGQGLEWMGMIHPSDSETSLNQAFKDRVTITADKSTSTAYMELSSLTSEDTAVYYCARMGRRNPYYFDYWGQGTTVTVSS
VL: DIQMTQSPSSLSASVGDRVTITCRPSENLYTNLAWYQQKPGKAPKLLLYGATNLADGVPSRFSGSGSGTDYTLTISSLQPEDFATYYCQHLWGTPFTFGQGTKLEIKR
notes: Humanized, human IgG4 (S228P) kappa; H3 read as hCTLA4.27VH3, L1 as hCTLA4.27VL1
B3: hCTLA4.27H6L5 (antibody, human IgG4 S228P, kappa, V domains shown)
VH: EVQLLESGPELVRPGSSVKISCKASGYSFTTYWMNWVKQRPGKGLEWIGMIHPSDSETSLNQAFKDKVKLTAATSASIAYLEFSSLRNEDSAVYYCARMGRRNPYYFDYWGQGTLVTVSS
VL: DIQMTQAPSSLSASVGDRVTITCRPSENLYTNLAWYQQKPGKAPKLLLYGATNLADGVPSRFSGSGSGTDYTLTISSLQAEDFATYYCQHLWGTPFTFGGGTKLEIKR
notes: Humanized, human IgG4 (S228P) kappa; H6 read as hCTLA4.27VH6, L5 as hCTLA4.27VL5
B4: hCTLA4.27H3L2 (antibody, human IgG4 S228P, kappa, V domains shown)
VH: EVQLVQSGAVVAKPGSSVKVSCKASGYSFTTYWMNWVRQAPGQGLEWMGMIHPSDSETSLNQAFKDRVTITADKSTSTAYMELSSLTSEDTAVYYCARMGRRNPYYFDYWGQGTTVTVSS
VL: DIQMTQSPSSLSASVGDRVTITCRPSENLYTNLAWYQQKPGKAPKLLIYGATNLADGVPSRFSGSGSGTEFSLSISSLQPEDFATYYCQHLWGTPFTFGGGTKVEIKR
notes: Humanized, human IgG4 (S228P) kappa; H3 read as hCTLA4.27VH3, L2 as hCTLA4.27VL2
B5: hCTLA4.27H5L2 (antibody, human IgG4 S228P, kappa, V domains shown)
VH: EVQLLQAGAVLARPGTSVKISCKASGYSFTTYWMNWVKQRPGKGLEWIGMIHPSDSETSLNQAFKDKAKLTAATSASIAYLEFSSLTNEDSAVYYCARIGRRNPYYFDYWGQGTLVTVSS
VL: DIQMTQSPSSLSASVGDRVTITCRPSENLYTNLAWYQQKPGKAPKLLIYGATNLADGVPSRFSGSGSGTEFSLSISSLQPEDFATYYCQHLWGTPFTFGGGTKVEIKR
notes: Humanized, human IgG4 (S228P) kappa; H5 read as hCTLA4.27VH5, L2 as hCTLA4.27VL2
B6: hCTLA4.27H2L1 (antibody, human IgG4 S228P, kappa, V domains shown)
VH: EVQLVQSGAVLVKPGASVKVSCKASGYSFTTYWMNWVRQRPGKGLEWIGMIHPSDSETSLNQAFKDKVTITADESTSTAYMQLSSLRSEDTAVYYCARMGRRNPYYFDYWGQGTTVTVSS
VL: DIQMTQSPSSLSASVGDRVTITCRPSENLYTNLAWYQQKPGKAPKLLLYGATNLADGVPSRFSGSGSGTDYTLTISSLQPEDFATYYCQHLWGTPFTFGQGTKLEIKR
notes: Humanized, human IgG4 (S228P) kappa; H2 read as hCTLA4.27VH2, L1 as hCTLA4.27VL1
B7: hCTLA4.27H6L3 (antibody, human IgG4 S228P, kappa, V domains shown)
VH: EVQLLESGPELVRPGSSVKISCKASGYSFTTYWMNWVKQRPGKGLEWIGMIHPSDSETSLNQAFKDKVKLTAATSASIAYLEFSSLRNEDSAVYYCARMGRRNPYYFDYWGQGTLVTVSS
VL: DIQMTQSPSSLSASVGDTVTITCRPSENLYTNLAWYQQKPGKAPKLLLYGATNLADGVPSRFSGSGSGTDYTLTISSLQSEDFATYYCQHLWGTPFTFGQGTKLEIKR
notes: Humanized, human IgG4 (S228P) kappa; H6 read as hCTLA4.27VH6, L3 as hCTLA4.27VL3
B8: hCTLA4.27H5L5 (antibody, human IgG4 S228P, kappa, V domains shown)
VH: EVQLLQAGAVLARPGTSVKISCKASGYSFTTYWMNWVKQRPGKGLEWIGMIHPSDSETSLNQAFKDKAKLTAATSASIAYLEFSSLTNEDSAVYYCARIGRRNPYYFDYWGQGTLVTVSS
VL: DIQMTQAPSSLSASVGDRVTITCRPSENLYTNLAWYQQKPGKAPKLLLYGATNLADGVPSRFSGSGSGTDYTLTISSLQAEDFATYYCQHLWGTPFTFGGGTKLEIKR
notes: Humanized, human IgG4 (S228P) kappa; H5 read as hCTLA4.27VH5, L5 as hCTLA4.27VL5
B9: hCTLA4.27H5L1 (antibody, human IgG4 S228P, kappa, V domains shown)
VH: EVQLLQAGAVLARPGTSVKISCKASGYSFTTYWMNWVKQRPGKGLEWIGMIHPSDSETSLNQAFKDKAKLTAATSASIAYLEFSSLTNEDSAVYYCARIGRRNPYYFDYWGQGTLVTVSS
VL: DIQMTQSPSSLSASVGDRVTITCRPSENLYTNLAWYQQKPGKAPKLLLYGATNLADGVPSRFSGSGSGTDYTLTISSLQPEDFATYYCQHLWGTPFTFGQGTKLEIKR
notes: Humanized, human IgG4 (S228P) kappa; H5 read as hCTLA4.27VH5, L1 as hCTLA4.27VL1
B10: hCTLA4.27H1L5 (antibody, human IgG4 S228P, kappa, V domains shown)
VH: EVQLLQSGAVLARPGTSVKISCKASGYSFTTYWMNWVKQRPGQGLEWIGMIHPSDSETSLNQAFKDKAKLTAATSASIAYLEFSSLTNEDSAVYYCARMGRRNPYYFDYWGQGTLVTVSS
VL: DIQMTQAPSSLSASVGDRVTITCRPSENLYTNLAWYQQKPGKAPKLLLYGATNLADGVPSRFSGSGSGTDYTLTISSLQAEDFATYYCQHLWGTPFTFGGGTKLEIKR
notes: Humanized, human IgG4 (S228P) kappa; H1 read as hCTLA4.27VH1, L5 as hCTLA4.27VL5
B11: hCTLA4.27H6L1 (antibody, human IgG4 S228P, kappa, V domains shown)
VH: EVQLLESGPELVRPGSSVKISCKASGYSFTTYWMNWVKQRPGKGLEWIGMIHPSDSETSLNQAFKDKVKLTAATSASIAYLEFSSLRNEDSAVYYCARMGRRNPYYFDYWGQGTLVTVSS
VL: DIQMTQSPSSLSASVGDRVTITCRPSENLYTNLAWYQQKPGKAPKLLLYGATNLADGVPSRFSGSGSGTDYTLTISSLQPEDFATYYCQHLWGTPFTFGQGTKLEIKR
notes: Humanized, human IgG4 (S228P) kappa; H6 read as hCTLA4.27VH6, L1 as hCTLA4.27VL1
B12: hCTLA4.27H1L3 (antibody, human IgG4 S228P, kappa, V domains shown)
VH: EVQLLQSGAVLARPGTSVKISCKASGYSFTTYWMNWVKQRPGQGLEWIGMIHPSDSETSLNQAFKDKAKLTAATSASIAYLEFSSLTNEDSAVYYCARMGRRNPYYFDYWGQGTLVTVSS
VL: DIQMTQSPSSLSASVGDTVTITCRPSENLYTNLAWYQQKPGKAPKLLLYGATNLADGVPSRFSGSGSGTDYTLTISSLQSEDFATYYCQHLWGTPFTFGQGTKLEIKR
notes: Humanized, human IgG4 (S228P) kappa; H1 read as hCTLA4.27VH1, L3 as hCTLA4.27VL3
B13: hCTLA4.27H2L3 (antibody, human IgG4 S228P, kappa, V domains shown)
VH: EVQLVQSGAVLVKPGASVKVSCKASGYSFTTYWMNWVRQRPGKGLEWIGMIHPSDSETSLNQAFKDKVTITADESTSTAYMQLSSLRSEDTAVYYCARMGRRNPYYFDYWGQGTTVTVSS
VL: DIQMTQSPSSLSASVGDTVTITCRPSENLYTNLAWYQQKPGKAPKLLLYGATNLADGVPSRFSGSGSGTDYTLTISSLQSEDFATYYCQHLWGTPFTFGQGTKLEIKR
notes: Humanized, human IgG4 (S228P) kappa; H2 read as hCTLA4.27VH2, L3 as hCTLA4.27VL3
B14: hCTLA4.27H5L3 (antibody, human IgG4 S228P, kappa, V domains shown)
VH: EVQLLQAGAVLARPGTSVKISCKASGYSFTTYWMNWVKQRPGKGLEWIGMIHPSDSETSLNQAFKDKAKLTAATSASIAYLEFSSLTNEDSAVYYCARIGRRNPYYFDYWGQGTLVTVSS
VL: DIQMTQSPSSLSASVGDTVTITCRPSENLYTNLAWYQQKPGKAPKLLLYGATNLADGVPSRFSGSGSGTDYTLTISSLQSEDFATYYCQHLWGTPFTFGQGTKLEIKR
notes: Humanized, human IgG4 (S228P) kappa; H5 read as hCTLA4.27VH5, L3 as hCTLA4.27VL3
B15: hCTLA4.27H1L2 (antibody, human IgG4 S228P, kappa, V domains shown)
VH: EVQLLQSGAVLARPGTSVKISCKASGYSFTTYWMNWVKQRPGQGLEWIGMIHPSDSETSLNQAFKDKAKLTAATSASIAYLEFSSLTNEDSAVYYCARMGRRNPYYFDYWGQGTLVTVSS
VL: DIQMTQSPSSLSASVGDRVTITCRPSENLYTNLAWYQQKPGKAPKLLIYGATNLADGVPSRFSGSGSGTEFSLSISSLQPEDFATYYCQHLWGTPFTFGGGTKVEIKR
notes: Humanized, human IgG4 (S228P) kappa; H1 read as hCTLA4.27VH1, L2 as hCTLA4.27VL2

Tests used:
[1] = target: T1, human CTLA-4 (Y166G and Y183G) expressed on CHO-K1.hCTLA-4 cells (human, UniProt P16410 36-223); assay: CELISA on CHO-K1.hCTLA-4 cells
T1 sequence (P16410 36-223 Y201G/Y218G limits assumed): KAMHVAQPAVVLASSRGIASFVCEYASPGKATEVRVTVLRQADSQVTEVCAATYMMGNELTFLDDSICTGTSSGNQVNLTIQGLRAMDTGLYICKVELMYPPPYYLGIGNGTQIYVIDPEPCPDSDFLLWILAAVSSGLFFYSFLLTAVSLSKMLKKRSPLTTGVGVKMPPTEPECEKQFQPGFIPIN
Procedure: Binding of the humanized antibodies to hCTLA-4 was studied in CELISA format. CHO-K1.hCTLA-4 cells were seeded in culture medium (DMEM-F12 (Gibco) with 10% Fetal Bovine Serum (Hyclone) and Pen/Strep (Gibco)) in tissue culture plates and cultured at 37° C., 5% CO₂ and 95% humidity until they were confluent. Subsequently, culture medium was removed and cells were incubated for 1 hour at 37° C., 5% CO₂ and 95% humidity with purified hCTLA-4 antibodies (10 μg/ml and dilutions thereof). Next, cells were washed with PBS/0.05% Tween (PBST) and incubated for 1 hour at 37° C., 5% CO₂ and 95% humidity with goat-anti-human IgG-HRP (Southern Biotechnology) or goat-anti-mouse IgG-HRP (Southern Biotechnology). Subsequently, cells were washed 3 times with PBST and anti-hCTLA-4 immunoreactivity was visualized with TMB Stabilized Chromagen (Invitrogen). Reactions were stopped with 0.5 M H₂SO₄ and absorbances were read at 450 and 610 nm.

[2] = target: T1, human CTLA-4 (Y166G and Y183G) …; assay: CELISA, blockade of biotinylated hCD80/Fc binding to CHO-K1.hCTLA-4 cells
Procedure: CHO-K1.hCTLA-4 cells were seeded in tissue culture plates and incubated at 37° C., 5% CO₂ and 95% humidity in culture medium. Once the cells were confluent culture medium was removed and cells were incubated for 1 hour with the humanized hCTL4.27 antibody variants (10 μg/ml and dilutions thereof) at 37° C., 5% CO₂ and 95% humidity. […] Cells were then washed with PBST followed by addition of Streptavidin-HRP conjugate on the cells, which was incubated for 1 hour at 37° C., 5% CO₂ and 95% humidity. […] Reactions were stopped with 0.5 M H₂SO₄ and absorbances were read at 450 and 610 nm. […] IC50 values represent the concentration at which half of the inhibition is observed.

Binder | EC50 [1] | IC50 [2]
B1 | 0.037 nM | 2.55 nM
B2 | 0.07 nM | 2.52 nM
B3 | 0.036 nM | 2.57 nM
B4 | 0.065 nM | 2.06 nM
B5 | 0.042 nM | 10.3 nM
B6 | 0.042 nM | 2.98 nM
B7 | 0.028 nM | 1.82 nM
B8 | 0.035 nM | 1.91 nM
B9 | 0.029 nM | 5.39 nM
B10 | 0.046 nM | 3.44 nM
B11 | 0.044 nM | 2.06 nM
B12 | 0.045 nM | 3.13 nM
B13 | 0.051 nM | 2.97 nM
B14 | 0.042 nM | 2.57 nM
B15 | 0.04 nM | 2.72 nM
